{"source": "patent US10182986B2", "about": "“Method of delivering therapeutics and imaging agents to the brain by nanoparticles that cross the blood brain barrier” (CALIFORNIA INSTITUTE OF TECHNOLOGY, priority 2013, dated 2019)", "assay": "Tf-DAK-PEG-OPSS degradation in pH 5.5 buffer followed by MALDI-TOF", "type": "physicochemical", "details": "37° C., crude mixture", "experimental": "At various time points, aliquots were removed, diluted 1:10 in 10 mM NaH2PO4 pH 8.0 and frozen on CO2(s). Once the last aliquot was removed, all samples were melted and immediately measured by MALDI-TOF using a sinapinic acid matrix.", "data": [{"substance": "Tf-DAK-PEG-OPSS: human holo-Tf conjugated through diamino ketal (DAK) linker to PEG-orthopyridyl disulfide", "values": [{"measurement": "Time by which nearly all the PEG has cleaved", "value": "≤ 2", "unit": "h"}]}]}
